Source: patent US20230265151A1, “GIP/GLP1 CO-AGONIST COMPOUNDS” (priority 2020, published 2023)
Where a chain is given by its changes, count along the chain named.

B1: Example 243 (peptide)
peptide: YXEGTXTSDXXIXLDXKAQXKFIXXLIEGGPSSGAPPPS
modifications: Y-Aib-EGT-αMeF(2F)-TSD-4Pal-Aib-I-αMeL-LD-Orn-K((2-[2-(2-Amino-ethoxy)-ethoxy]-acetyl)2-(γ-Glu)-(10-(4-carboxyphenoxy)decanoyl))AQ-Aib-K((2-[2-(2-Amino-ethoxy)-ethoxy]-acetyl)2-(γ-Glu)-(10-(4-carboxyphenoxy)decanoyl))FI-(D-Glu)-αMeY-LIEGGPSSGAPPPS-NH2
B2: Example 320 (peptide)
peptide: B1 peptide with X11S
modifications: Aib2, αMeF(2F)6, hTyr10, αMeL13, Orn16, Aib20, D-Glu24, αMeY25; K17 and K21: AEEA2-(γ-Glu)-(10-(4-carboxyphenoxy)decanoyl); C-terminal NH2
B3: Example 323 (peptide)
peptide: B1 peptide with X11S
modifications: Aib2, αMeF(2F)6, hTyr10, αMeL13, Orn16, Aib20, D-Glu24, αMeY25; K17 and K21: AEEA2-(γ-Glu)-CO-(CH2)10-CH3; C-terminal NH2
B4: Example 332 (peptide)
peptide: B1 peptide with X11S, K17I, E28K
modifications: Aib2, αMeF(2F)6, hTyr10, αMeL13, Orn16, Aib20, D-Glu24, αMeY25; K21 and K28: AEEA2-(γ-Glu)-(10-(4-carboxyphenoxy)decanoyl); C-terminal NH2
B5: Example 328 (peptide)
peptide: B1 peptide with X11S, K21E, E28K
modifications: Aib2, αMeF(2F)6, Nle10, αMeL13, Orn16, Aib20, D-Glu24, αMeY25; K17 and K28: AEEA2-(γ-Glu)-(10-(4-carboxyphenoxy)decanoyl); C-terminal NH2
B6: Example 335 (peptide)
peptide: B1 peptide with X11S, K21E, E28K
modifications: Aib2, αMeF(2F)6, hTyr10, αMeL13, Orn16, Aib20, D-Glu24, αMeY25; K17 and K28: AEEA2-(γ-Glu)-CO-(CH2)10-CH3; C-terminal NH2
B7: Example 321 (peptide)
peptide: B1 peptide with X11S
modifications: Aib2, αMeF(2F)6, Nle10, αMeL13, Orn16, Aib20, D-Glu24, αMeY25; K17 and K21: AEEA2-(γ-Glu)-(10-(4-carboxyphenoxy)decanoyl); C-terminal NH2
B8: Example 327 (peptide)
peptide: B1 peptide with X11S, K21E, E28K
modifications: Aib2, αMeF(2F)6, hTyr10, αMeL13, Orn16, Aib20, D-Glu24, αMeY25; K17 and K28: AEEA2-(γ-Glu)-(10-(4-carboxyphenoxy)decanoyl); C-terminal NH2

Columns and labels:
Assay in all cases: cell-based or functional assay
[1] = target: human glucagon receptor (human, UniProt P47871 26-477)
[2] = target: T1, human GIP receptor (human, UniProt P48546 22-466)
T1 sequence (looked up): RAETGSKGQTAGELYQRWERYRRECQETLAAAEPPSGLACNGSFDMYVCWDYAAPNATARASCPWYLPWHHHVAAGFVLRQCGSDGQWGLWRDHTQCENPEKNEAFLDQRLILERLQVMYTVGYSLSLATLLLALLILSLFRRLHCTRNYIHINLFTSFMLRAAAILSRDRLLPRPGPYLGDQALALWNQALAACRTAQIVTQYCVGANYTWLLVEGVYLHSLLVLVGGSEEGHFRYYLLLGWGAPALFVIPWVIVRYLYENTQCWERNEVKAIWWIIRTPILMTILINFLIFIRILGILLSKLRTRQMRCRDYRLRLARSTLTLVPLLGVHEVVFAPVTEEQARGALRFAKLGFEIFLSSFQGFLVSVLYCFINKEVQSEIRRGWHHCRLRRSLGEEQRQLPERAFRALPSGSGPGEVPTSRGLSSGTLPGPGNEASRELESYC

[3] = target: human GLP-1 receptor (human, UniProt P43220 24-463)
[4] = target: human glucagon receptor (human) (UniProt P47871)
[5] = target: human glucagon-like peptide-1 (GLP-1) receptor (human) (UniProt P43220)
[6] = target: T2, human glucose-dependent insulinotropic polypeptide (GIP) receptor (human) (UniProt P48546)
T2 sequence (looked up): T1 sequence (looked up)

[7] = target: human GLP-1 receptor (human, UniProt P43220 24-463); remark: listed apart in the source
[8] = target: T3, human GIP receptor (human, UniProt P48546 22-466); remark: listed apart in the source
T3 sequence (looked up): T1 sequence (looked up)

[9] = target: human glucagon receptor (human, UniProt P47871 26-477); remark: listed apart in the source

| Binder | cAMP EC50 [7] [nM] | cAMP EC50 [8] [nM] | cAMP EC50 [9] [nM] | further results |
| --- | --- | --- | --- | --- |
| B1 | – | – | – | cAMP EC50 (1.0% HSA) [1]: > 9950 nM; cAMP EC50 (1.0% HSA) [2]: 0.728 nM; cAMP EC50 (1.0% HSA) [3]: 34.7 nM; cAMP Emax (1.0% HSA) [3]: 114%; cAMP EC50 [4]: > 9950 nM; cAMP EC50 [5]: 0.86 nM; cAMP Emax [5]: 93.2%; cAMP EC50 [6]: 0.0154 nM; cAMP Emax [6]: 101% |
| B2 | 0.246 | 0.0144 | > 9950 | – |
| B3 | 0.203 | 0.00793 | > 9950 | – |
| B4 | 0.263 | 0.0109 | > 9950 | – |
| B5 | 0.405 | 0.00973 | > 9950 | – |
| B6 | 0.175 | 0.00871 | > 9950 | – |
| B7 | 0.295 | 0.0107 | > 9950 | – |
| B8 | 0.211 | 0.018 | > 9950 | – |
